Measured values taken from article PMC5902510.

Biological target: GST-SpyCatcher fusion protein, immobilised on nanoparticles (Streptococcus pyogenes)
Assay: dynamic light scattering; GST-SpyCatcher held on 40 nm citrate-capped gold nanoparticles; excess of the second protein, 3 h incubation; increase of Z-average diameter (Δd); 20 °C; 10 mM HEPES pH 7.3, 10 mM NaCl

## NEM-GST-SpyTag
  increase of particle diameter (Δd): 3 nm
